# Laboratory results as given in publication PMC11215833.
# Target: PybHLH3: Nluc (pear 'Red Zaosu' (P. pyrifolia × P. communis))
substance,measurement,value
PyMYB107 (co-expressed as competitor) (natural protein),"dual-luciferase assay, LUC/REN ratio of the PyUFGT promoter activated by PyMYB10 with PybHLH3; ratio of PyMYB107:PyMYB10 from 0:1 (0.48) to 1:1 (0.26) (LUC/REN ratio)",0.26
